Measurements reported in US9938510B2, “Photobacterium sp. alpha-2-6-sialyltransferase variants” (The Regents of the University of California, priority 2014, dated 2018).

Experiment: Apparent sialyltransferase kinetics, GalNAcαSer as acceptor
Type: biochemical
Protocol: Reactions were carried out in duplicate at 20° C. for 20 minutes in a total volume of 10 μL in a proper buffer at the optimal pH according to the pH profile of the wild-type enzyme (see, Ding, 2011, supra). When LacβMU was used as an acceptor, the conditions were: Tris-HCl buffer (200 mM, pH 8.0), enzyme (0.3 μM), varied concentrations of LacβMU (0.1, 0.25, 0.4, 1.0, 2.0, 4.0, and 6.0 mM) with a fixed concentration of CMP-Neu5Ac (1.0 mM) or varied concentrations of CMP-Neu5Ac (0.1, 0.25, 0.4, 1.0, 2.0, 4.0, and 6.0 mM) with a fixed concentration of LacβMU (1.0 mM). When GalNAcα2AA was used as an acceptor, the conditions were: NaOAc-HOAc buffer (200 mM, pH 5.0), enzyme (6 μM), varied concentrations of GalNAcα2AA (0.5, 0.8, 1.0, 2.0, 4.0, 8.0, and 10.0 mM) and a fixed concentration of CMP-Neu5Ac (4.0 mM) or varied concentrations of CMP-Neu5Ac (0.5, 1.0, 2.0, 4.0, 5.0, 8.0, and 10.0 mM) with a fixed concentration of GalNAcα2AA (1.0 mM). When GalNAcαSer was used as an acceptor, the conditions were: Tris-HCl buffer (200 mM, pH 8.0), enzyme (0.6 μM), varied concentrations of GalNAcαSer (0.1, 0.25, 0.5, 1.0, 2.0, 4.0, 8.0, and 10.0 mM) and a fixed concentration of CMP-Neu5Ac (2.0 mM). […]

B1: A366G: Photobacterium sp. JH-ISH-224 α2-6-sialyltransferase residues 15-501, A366G point mutation, C-terminal His6; SEQ ID NO: 2 (protein)
chain: CNNSEENTQSIIKNDINKTIIDEEYVNLEPINQSNISFTKHSWVQTCGTQQLLTEQNKESISLSVVAPRLDDDEKYCFDFNGVSNKGEKYITKVTLNVVAPSLEVYVDHASLPTLQQLMDIIKSEEENPTAQRYIAWGRIVPTDEQMKELNITSFALINNHTPADLVQEIVKQAQTKHRLNVKLSSNTAHSFDNLVPILKELNSFNNVTVTNIDLYDDGSAEYVNLYNWRDTLNKTDNLKIGKDYLEDVINGINEDTSNTGTSSVYNWQKLYPANYHFLRKDYLTLEPSLHELRDYIGDSLKQMQWDGFKKFNSKQQELFLSIVNFDKQKLQNEYNSSNLPNFVFTGTTVWGGNHEREYYAKQQINVINNAINESSPHYLGNSYDLFFKGHPGGGIINTLIMQNYPSMVDIPSKISFEVLMMTDMLPDAVAGIASSLYFTIPAEKIKFIVFTSTETITDRETALRSPLVQVMIKLGIVKEENVLFWA
modifications: C-terminal His6; Synthetic Psp26ST(15-501) A366G
catalytic efficiency (kcat/Km) higher than the wild-type enzyme: 1.2 fold
